Measurements as given in article PMC2614139.

Target: GCaMP2 (original protein with the N-terminal hexahistidine tag and RSET module) (not stated | Aequorea victoria)
Assay: AUC

Substance: GCaMP2 (original protein with the N-terminal hexahistidine tag and RSET module)
- stoichiometry N: 2
